Reference: paper PMC4493018, “A Unique Human Norovirus Lineage with a Distinct HBGA Binding Interface” (PLoS Pathogens, 2015)

What was measured:
OIF P particle = target: T1, OIF P particle (Norovirus NLV/IF1998/2003/Iraq, UniProt Q6B7R3); experiment: ELISA, oligosaccharide coated on plate; format: binding; conditions: P particles 10 μg/ml, coated synthetic oligosaccharide 2 μg/ml (polyvalent PAA conjugate in the blocking assay), 37 °C
T1 construct: P domain self-assembled to P particles of 830 kDa; GST fusion from E. coli BL21, GST cut off with thrombin

[1] = target: T2, OIF P domain (GII.21 OIF virus P dimer) (Norovirus NLV/IF1998/2003/Iraq, UniProt Q6B7R3); experiment: X-ray co-crystal structure, […] Å; conditions: co-crystallised without glycerol; 10 mM ligand; new HBGA site of B-, N- and T-loops; beta-Gal is major binding saccharide
T2 construct: P domain, residues 220-527, pGEX-6P-1 GST fusion in E. coli BL21(DE3), GST cut off with PreScission protease; dimer

[2] = target: P domain of the GII.21 OIF (Operation Iraqi Freedom) norovirus capsid protein VP1 (human norovirus GII.21 OIF virus); experiment: crystal structure
Lea oligosaccharide = experiment: plate binding assay with coated oligosaccharides (OD450 read-out); conditions: P particles 10 μg/ml; oligosaccharides for plate coating at 2 μg/ml; parent: est. 0.85; read off a plot
[3] = target: A antigen oligosaccharide; experiment: as above; conditions: P particles 10 μg/ml; oligosaccharides for plate coating at 2 μg/ml; parent: est. 0.04; read off a plot

In the case of `CC(=O)N[C@H]1C(O)O[C@H](CO)[C@@H](O[C@@H]2O[C@@H](C)[C@@H](O)[C@@H](O)[C@@H]2O)[C@@H]1O[C@@H]1O[C@H](CO)[C@H](O)[C@H](O)[C@H]1O` (stereo partly drawn) [Le^a trisaccharide, β-Gal-(1,3)-(α-Fuc-(1,4))- GlcNAc], the “ELISA, oligosaccharide coated on plate” value (OIF P particle) is reported as “wild type P particle of OIF virus that binds strongly to Le^a oligosaccharide” and the “X-ray co-crystal structure, 2.00 Å” value [1] is reported as “we co-crystallized the OIF P domain with Le^a trisaccharide”.
“P domain of the GII.21 OIF (Operation Iraqi Freedom) norovirus capsid protein VP1 (domain or fragment)” gave a stoichiometry N [2] of 2.
With wild type P particle of OIF virus D294A the response (Lea oligosaccharide) was 0.32 OD450 and the response [3] was 0.07 OD450.
In the case of wild type P particle of OIF virus E358A, the response [3] is reported as 0.08 OD450.
